What was measured:
[1] = tested on: folate receptor-positive cells; experiment: FRES uptake in SCI: NIR imaging of transverse spinal cord sections, conjugate vs unconjugated dye; assay type: in vivo, Sprague Dawley rats; settings: for NIR signal in the spinal cords: SCI rats, injected day 7 after injury, imaged day 8, conjugate vs unconjugated NIR dye
Protocol: Adult male Sprague Dawley rats were given a moderate grade SCI. The rats were injected with OTL38 or unconjugated NIR dye on day 7 after injury. On day 8, the spinal cords were removed and imaged for NIR signal.
FIGS. 11A-11B show transverse spinal cord sections of the rostral portions (FIG. 11A) and epicenters (FIG. 11B) of a rat with SCI and injected seven days after injury with OTL38. […] The results are shown in FIG. 11D, which is a bar graph of mean fluorescence intensity vs. rostral portion and epicenter showing OTL38 uptake (students t-test, **p<0.01).

[2] = Persistence of folate conjugate: NIR signal in blood and CSF over time; assay type: in vivo, Sprague Dawley rats; settings: rats
Protocol: Adult male Sprague Dawley rats were injected with OTL38. Blood and cerebrospinal fluid (CSF) were then extracted at the same time at various timepoints and imaged. […] The data also indicate that the exposure of the CNS to the payload is extended over time.
FIG. 9 is a graph of mean fluorescent intensity vs. time for CSF and blood. n=1-4 rats/timepoint.

eye [3] = settings: rat, in vivo
Protocol: An adult male Sprague Dawley rat was intravenously injected with OTL38 and imaged 24 hours later. […] Red and green colors indicate signal from the dye, with red showing the most intense regions.

[4] = tested on: rats with controlled cortical impact (CCI) injuries; experiment: FRES uptake in controlled cortical impact (CCI) injury: NIR imaging of the cortex surface; assay type: in vivo, Sprague Dawley rats; settings: intravenous injection ten days after CCI injury, imaged next day
Excerpt: Adult male Sprague Dawley rats were given moderate grade controlled cortical impact (CCI) injuries. This injury represents concussion of the brain cortex, which is a more common injury in humans than laceration of the brain cortex. The impactor was circular and 6 mm in diameter. The rats were intravenously injected with OTL38 ten days after injury. The next day the rats were sacrificed, and the surfaces of the cortexes were imaged. […] The yellow arrow points to signal on the dorsal surface of the spinal cord.

eye [5] = settings: mouse, in vivo
Protocol: Given the extensive time that OTL38 remained in the eyes, signal in the presence of the folate competitor folate-glucosamine (Fol-Glc) was tested. Healthy, wild-type mice were injected with 10 nmols OTL38. Some mice were subsequently injected with Fol-Glc. All mice were subsequently sacrificed and examined in comparison to noninjected mice.

[6] = tested on: folate receptor-positive cells; experiment: FRES uptake in spinal cord contusion injury (SCI): ex vivo NIR imaging of spinal cords; parameters: species or system Sprague Dawley rats; settings: SCI rats
Protocol: Adult male Sprague Dawley rats were given a moderate grade spinal cord contusion injury (SCI). The rats were injected with OTL38 or simultaneously with OTL38 and Fol-Glu on day 7 after injury. On day 8, the spinal cords were removed and imaged for NIR signal.
NR signal is represented by green and red colors, with red showing areas of high intensity. Blue arrows point to the epicenter of the SCI. “R” indicates the rostral portion of the spinal cord.

[7] = molecular target: T1, folate receptors on cells of the choroid plexus (Mus musculus, UniProt P35846); experiment: Transport of folate conjugates across blood-cerebrospinal fluid barrier: NIR imaging of brain/choroid plexus; assay type: in vivo, B6 male mice
T1 construct: the uptake of OTL38 is mediated by folate receptors on cells of the choroid plexus; from tissue; host or cells: choroid plexus of live B6 male mice (in vivo, ex vivo NIR imaging of brain)
T1 sequence (P35846 25-232): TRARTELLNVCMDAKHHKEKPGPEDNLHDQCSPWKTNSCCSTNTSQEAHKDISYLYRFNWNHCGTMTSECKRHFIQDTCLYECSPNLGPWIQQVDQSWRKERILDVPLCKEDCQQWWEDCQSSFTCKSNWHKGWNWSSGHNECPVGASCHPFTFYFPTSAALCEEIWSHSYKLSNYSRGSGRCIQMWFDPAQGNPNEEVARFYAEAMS
Excerpt: Corresponding ventral side of the spinal cords are shown to the left of each brain. […] Green fluorescence indicates OTL38 signal. […] In the middle column (OTL38+Fol-Glu, n=4) minimal uptake is observed. In the far-right corner, Control (non-injected, n=1), no signal is observed. FIG. 9 is a graph of mean fluorescent intensity vs. time for CSF and blood. n=1-4 rats/timepoint.
B6 male mice were given an intravenous tail injection of a folate-fluorescent near infrared (NIR) dye conjugate (i.e., OTL38) and imaged. […] Corresponding ventral side of the spinal cords are shown to the left of each brain. […] Green fluorescence indicates OTL38 signal. […] In the middle column (OTL38+Fol-Glu, n=4) minimal uptake is observed. In the far right corner, Control (non-injected, n=1), no signal is observed.

[8] = tested on: rats with cortex laceration of the left hemisphere; experiment: FRES uptake in cortex laceration: NIR imaging of the cortex; assay type: in vivo, Sprague Dawley rats; settings: injected seven days after cortex laceration, brains removed next day
Protocol: Adult male Sprague Dawley rats were given brain injuries by cortex laceration of the left hemisphere using a small ophthalmic knife. Seven days after injury, the rats were injected with OTL38. The brains were removed the next day, and the cortexes were imaged.
FIGS. 13A-13B show a precise surface laceration injury in the cortex of the left hemisphere of the brain. FIG. 13A is a cartoon indicating the area of injury (blue circle) and the area imaged (blue rectangle). […] The right hemisphere cortex served as an internal control (uninjured, no signal).
Choroid plexus cells in the ventricles produce CSF and are the site of FRES release into the subarachnoid space, where the brain and spinal cord continue to be perfused. The 4th ventricle and lateral recess contain choroid plexus cells and are the site of outflow for newly produced CSF. The intense signal below the cerebellum (blue arrow) is a result of concentrated choroid plexus cells and FRES/new CSF production and entry for CNS perfusion. […] The opposite hemisphere represents an internal control with no areas of enhanced signal.

| Molecule | NIR signal in the spinal cords [1] | Mean fluorescence intensity, epicenter vs rostral region ([1]; SCI rat, transverse spinal cord sections, students t-test **p<0.01) | NIR signal in the blood relative to that of the CSF ([2]; four hours post-injection and all subsequent timepoints) | NIR signal in the blood relative to that of the CSF ([2]; two hours post-injection, blood exceeded CSF) | Uptake in the retina, eye slices (eye [3]) | NIR signal at the eye, live imaging (eye [3]; iv) | NIR signal at the CCI injury [4] | OTL38 signal (mean fluorescence intensity) in eyes after administration of Fol-Glc (eye [5]) | NIR signal in the spinal cords, injected simultaneously with Fol-Glu ([6]; OTL38+Fol-Glu on day 7 after injury, imaged day 8) | NIR signal in the spinal cords ([6]; injected day 7 after injury, spinal cords imaged day 8) | NIR signal in the choroid plexus, co-injected with Fol-Glu ([7]; mice co-injected with OTL38 and folate-glucosamine conjugate (Fol-Glu), competitor for folate receptors) | NIR signal in the choroid plexus ([7]; mice, intravenous tail injection, 24 hours after injection) | NIR signal around the choroid plexus [8] | NIR signal at the cortex injury ([8]; uninjured right hemisphere no signal) |
| --- | --- | --- | --- | --- | --- | --- | --- | --- | --- | --- | --- | --- | --- | --- |
| CC1(C)C(/C=C/C2=C(Cl)C(=C/C=C3/N(CCCCS(=O)(=O)[O-])c4ccc(S(=O)(=O)[O-])cc4C3(C)C)/CCC2)=[N+](CCCCS(=O)(=O)[O-])c2ccc(S(=O)(=O)[O-])cc21.[Na+].[Na+].[Na+] [unconjugated NIR dye] | lack of signal |  |  |  |  |  |  |  |  |  |  |  |  |  |
| OTL38 | Signal was observed | significant increase in signal in the epicenter as compared to the rostral region | dropped and remained lower than that of the CSF | nearly two-fold | strong OTL38 uptake in the area of the retina | intense red signal at the eye | positive targeting of the 6 mm circular injury | reduced | lack of signal | Strong signal | noticeable reduction in signal | Strong signal | Increased signal around the choroid plexus | enhanced signal around the injury area |
